Measurements from US20140170137A1 (NVIP, published 2014).
Where a chain is given by its changes, count along the chain named.

Legend:
[1] = target: NGF (TF-1 cell proliferation assay); assay: cell-based or functional assay
mouse NGF [2] = target: T1, mouse NGF (mouse, UniProt P01139 122-241); assay: ELISA, CHO supernatant on murine NGF
T1 construct: also called murine NGF

complement C1q [3] = target: T2, complement C1q (human, UniProt P02745 23-245; P02746 28-253; P02747 29-245); assay: C1q ELISA, antibody captured on mouse NGF coated plates
T2 construct: Supplied as human serum diluted 1/100; detected with sheep anti-C1q-HRP
T2 sequence (P02745 23-245 limits assumed, chain 1 of 3): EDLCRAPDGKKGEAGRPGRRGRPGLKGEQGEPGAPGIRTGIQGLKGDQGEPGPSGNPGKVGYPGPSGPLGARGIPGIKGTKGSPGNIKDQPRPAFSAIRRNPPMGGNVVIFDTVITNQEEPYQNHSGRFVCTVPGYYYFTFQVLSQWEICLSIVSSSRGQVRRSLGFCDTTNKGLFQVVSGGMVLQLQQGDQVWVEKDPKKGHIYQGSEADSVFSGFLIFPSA
T2 sequence (P02746 28-253 limits assumed, chain 2 of 3): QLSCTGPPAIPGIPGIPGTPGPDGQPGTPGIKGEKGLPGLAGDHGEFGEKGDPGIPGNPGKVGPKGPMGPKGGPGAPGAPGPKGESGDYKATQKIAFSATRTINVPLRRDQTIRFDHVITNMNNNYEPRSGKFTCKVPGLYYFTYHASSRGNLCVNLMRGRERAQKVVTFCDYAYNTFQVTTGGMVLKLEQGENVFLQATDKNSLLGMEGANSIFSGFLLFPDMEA
T2 sequence (P02747 29-245 limits assumed, chain 3 of 3): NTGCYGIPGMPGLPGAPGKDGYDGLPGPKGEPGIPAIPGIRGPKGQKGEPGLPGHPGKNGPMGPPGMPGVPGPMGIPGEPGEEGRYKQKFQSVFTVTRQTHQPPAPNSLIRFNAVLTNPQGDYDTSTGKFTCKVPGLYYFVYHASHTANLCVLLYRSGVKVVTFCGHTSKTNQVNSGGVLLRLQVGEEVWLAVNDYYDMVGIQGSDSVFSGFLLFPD

mouse NGF [4] = target: T1, mouse NGF; assay: binding ELISA to mouse NGF, CHO supernatants
complement C1q [5] = target: T2, complement C1q; assay: C1q ELISA, antibody captured on mouse NGF, human serum 1/100
complement C1q [6] = target: T2, complement C1q; assay: C1q ELISA, antibody captured on NGF
complement C1q [7] = target: T2, complement C1q; assay: C1q ELISA, antibody captured on NGF coated plates

T1 sequence (P01139 122-241 limits assumed): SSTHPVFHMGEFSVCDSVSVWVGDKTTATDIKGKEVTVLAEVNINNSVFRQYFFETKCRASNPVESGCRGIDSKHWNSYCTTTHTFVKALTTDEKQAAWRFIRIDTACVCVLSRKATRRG
Sequence of NGF (TF-1 cell proliferation assay) (P01138 122-241): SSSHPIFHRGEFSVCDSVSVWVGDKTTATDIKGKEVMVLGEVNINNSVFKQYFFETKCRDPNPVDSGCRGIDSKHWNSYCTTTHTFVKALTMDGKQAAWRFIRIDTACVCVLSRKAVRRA

B1: caN-HCA-kLC (antibody)
heavy: EVQLVESGGDLVNPGGTLTLSCVVSGFSLTNNNVNWVRQALGRGLEWVGGVWAGGATDYNSALKSRLTITRDTSKSTVFLKMHSLQSEDTATYYCARDGGYSSSTLYAMDAWGQGTLVTVSSASTTAPSVFPLAPSCGSTSGSTVALACLVSGYFPEPVTVSWNSGSLTSGVHTFPSVLQSSGLHSLSSMVTVPSSRWPSETFTCNVVHPASNTKVDKPVFNECRCTDTPPCPVPEPLGGPSVLIFPPKPKDILRITRTPEVTCVVLDLGREDPEVQISWFVDGKEVHTAKTQSREQQFNGTYRVVSVLPIEHQDWLTGKEFKCRVNHIDLPSPIERTISKARGRAHKPSVYVLPPSPKELSSSDTVSITCLIKDFYPPDIDVEWQSNGQQEPERKHRMTPPQLDEDGSYFLYSKLSVDKSRWQQGDPFTCAVMHETLQNHYTDLSLSHSPGK
light: DIQMTQSPASLSLSQEEKVTITCRASEDIYNALAWYQQKPGQAPKLLIYNTDTLHTGVPSRFSGSGSGTEYSLTINSLESEDVAVYFCQHYFHYPRTFGAGTKVELKRNDAQPAVYLFQPSPDQLHTGSASVVCLLNSFYPKDINVKWKVDGVIQDTGIQESVTEQDKDSTYSLSSTLTMSSTEYLSHELYSCEITHKSLPSTLIKSFQRSECQRVD
notes: Caninised aD11 VH joined to canine HCA (caIgG-A) constant domain; caninised aD11 VL joined to canine kappa constant domain; also called caninised anti-NGF antibody, HCA isotype; anti-canine NGF antibody (HCA isotype)
IC50, TF-1 NGF neutralisation assay [1]: 13 pM
binding result (mouse NGF [2]): binds
binding result (complement C1q [3]): no binding (tested: human serum diluted 1/100)

B2: caN-HCD-kLC (antibody)
heavy: EVQLVESGGDLVNPGGTLTLSCVVSGFSLTNNNVNWVRQALGRGLEWVGGVWAGGATDYNSALKSRLTITRDTSKSTVFLKMHSLQSEDTATYYCARDGGYSSSTLYAMDAWGQGTLVTVSSASTTAPSVFPLAPSCGSTSGSTVALACLVSGYFPEPVTVSWNSGSLTSGVHTFPSVLQSSGLYSLSSTVTVPSSRWPSETFTCNVVHPASNTKVDKPVPKESTCKCISPCPVPESLGGPSVFIFPPKPKDILRITRTPEITCVVLDLGREDPEVQISWFVDGKEVHTAKTQPREQQFNSTYRVVSVLPIEHQDWLTGKEFKCRVNHIGLPSPIERTISKARGQAHQPSVYVLPPSPKELSSSDTVTLTCLIKDFYPPEIDVEWQSNGQPEPESKYHTTAPQLDEDGSYFLYSKLSVDKSRWQQGDTFTCAVMHEALQNHYTDLSLSHSPGK
light: B1 light
notes: Caninised aD11 VH joined to canine HCD (caIgG-D) constant domain; canine kappa light chain; CHO supernatant; also called caninised anti-NGF antibody, HCD isotype
binding result (mouse NGF [2]): binds
binding result (complement C1q [3]): no binding (tested: human serum diluted 1/100)

B3: caN-HCC-kLC (antibody)
heavy: EVQLVESGGDLVNPGGTLTLSCVVSGFSLTNNNVNWVRQALGRGLEWVGGVWAGGATDYNSALKSRLTITRDTSKSTVFLKMHSLQSEDTATYYCARDGGYSSSTLYAMDAWGQGTLVTVSSASTTAPSVFPLAPSCGSQSGSTVALACLVSGYIPEPVTVSWNSVSLTSGVHTFPSVLQSSGLYSLSSMVTVPSSRWPSETFTCNVAHPATNTKVDKPVAKECECKCNCNNCPCPGCGLLGGPSVFIFPPKPKDILVTARTPTVTCVVVDLDPENPEVQISWFVDSKQVQTANTQPREEQSNGTYRVVSVLPIGHQDWLSGKQFKCKVNNKALPSPIEEIISKTPGQAHQPNVYVLPPSRDEMSKNTVTLTCLVKDFFPPEIDVEWQSNGQQEPESKYRMTPPQLDEDGSYFLYSKLSVDKSRWQRGDTFICAVMHEALHNHYTQISLSHSPGK
light: B1 light
notes: Caninised aD11 VH joined to canine HCC (caIgG-C) constant domain; canine kappa light chain; CHO supernatant; also called caninised anti-NGF antibody, HCC isotype
binding result (mouse NGF [4]): binds
binding result (complement C1q [5]): binds

B4: caN-HCB-kLC (antibody)
heavy: EVQLVESGGDLVNPGGTLTLSCVVSGFSLTNNNVNWVRQALGRGLEWVGGVWAGGATDYNSALKSRLTITRDTSKSTVFLKMHSLQSEDTATYYCARDGGYSSSTLYAMDAWGQGTLVTVSSASTTAPSVFPLAPSCGSTSGSTVALACLVSGYFPEPVTVSWNSGSLTSGVHTFPSVLQSSGLYSLSSMVTVPSSRWPSETFTCNVAHPASKTKVDKPVPKRENGRVPRPPDCPKCPAPEMLGGPSVFIFPPKPKDTLLIARTPEVTCVVVDLDPEDPEVQISWFVDGKQMQTAKTQPREEQFNGTYRVVSVLPIGHQDWLKGKQFTCKVNNKALPSPIERTISKARGQAHQPSVYVLPPSREELSKNTVSLTCLIKDFYPPDIDVEWQSNGQQEPESKYRTTPPQLDEDGSYFLYSKLSVDKSRWQRGDTFICAVMHEALHNHYTQESLSHSPGK
light: B1 light
notes: Caninised aD11 VH joined to canine HCB (caIgG-B) constant domain; canine kappa light chain; CHO supernatant; also called caninised anti-NGF antibody, HCB isotype
binding result (mouse NGF [4]): binds
binding result (complement C1q [5]): binds

B5: anti-NGF MAb with aglycosyl HCC heavy chain (HCC*) (antibody)
heavy: B3 heavy with N303A
light: B1 light
binding result (complement C1q [6]): binds
binding result (mouse NGF [4]): binds

B6: anti-NGF MAb with aglycosyl HCB heavy chain (HCB*) (antibody)
heavy: B4 heavy with N305A
light: B1 light
notes: also called aglycosylated HCB*; aglycosyl HCB* isotype anti-NGF antibody
binding result (mouse NGF [4]): binds
binding result (complement C1q [7]): no binding (tested: human serum diluted 1/100)
